Laboratory results published in patent US20240182563A1 (GENOME, published 2024).

T1: human CNTN4 antigen expressed on the cell membrane of 293FT cells (human, UniProt Q8IWV2 19-1000)
T1 construct: whole, on cells; also called Human CNTN4 transfected cell
T1 sequence (looked up): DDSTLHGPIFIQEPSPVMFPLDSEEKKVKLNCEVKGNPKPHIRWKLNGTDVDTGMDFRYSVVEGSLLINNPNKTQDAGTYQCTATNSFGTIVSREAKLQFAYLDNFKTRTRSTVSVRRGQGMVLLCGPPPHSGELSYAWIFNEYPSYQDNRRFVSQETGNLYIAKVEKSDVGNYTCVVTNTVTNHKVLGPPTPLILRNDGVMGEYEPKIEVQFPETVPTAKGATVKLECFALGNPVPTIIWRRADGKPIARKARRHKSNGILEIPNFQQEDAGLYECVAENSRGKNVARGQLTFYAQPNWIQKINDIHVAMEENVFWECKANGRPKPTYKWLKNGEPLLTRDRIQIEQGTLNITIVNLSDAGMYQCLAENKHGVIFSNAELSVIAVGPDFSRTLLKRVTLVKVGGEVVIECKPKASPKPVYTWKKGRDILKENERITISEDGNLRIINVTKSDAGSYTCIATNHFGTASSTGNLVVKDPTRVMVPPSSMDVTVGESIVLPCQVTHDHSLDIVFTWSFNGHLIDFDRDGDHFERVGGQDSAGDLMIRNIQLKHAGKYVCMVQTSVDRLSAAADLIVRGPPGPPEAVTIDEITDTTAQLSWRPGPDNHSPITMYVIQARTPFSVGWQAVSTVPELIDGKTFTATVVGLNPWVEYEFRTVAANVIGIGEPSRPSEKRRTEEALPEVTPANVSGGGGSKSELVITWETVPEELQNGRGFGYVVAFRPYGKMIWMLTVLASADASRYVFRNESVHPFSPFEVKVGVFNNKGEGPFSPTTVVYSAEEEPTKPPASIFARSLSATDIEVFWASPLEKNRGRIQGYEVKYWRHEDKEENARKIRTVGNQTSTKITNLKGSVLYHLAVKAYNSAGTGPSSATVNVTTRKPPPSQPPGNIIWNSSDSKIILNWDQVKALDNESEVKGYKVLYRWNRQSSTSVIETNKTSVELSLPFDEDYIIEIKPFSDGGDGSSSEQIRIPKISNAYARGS

T2: mouse CNTN4-rabbit Fc (mouse; rabbit, UniProt Q69Z26 19-1000, limits assumed)
T2 construct: not shown: rabbit Fc
T2 sequence (looked up): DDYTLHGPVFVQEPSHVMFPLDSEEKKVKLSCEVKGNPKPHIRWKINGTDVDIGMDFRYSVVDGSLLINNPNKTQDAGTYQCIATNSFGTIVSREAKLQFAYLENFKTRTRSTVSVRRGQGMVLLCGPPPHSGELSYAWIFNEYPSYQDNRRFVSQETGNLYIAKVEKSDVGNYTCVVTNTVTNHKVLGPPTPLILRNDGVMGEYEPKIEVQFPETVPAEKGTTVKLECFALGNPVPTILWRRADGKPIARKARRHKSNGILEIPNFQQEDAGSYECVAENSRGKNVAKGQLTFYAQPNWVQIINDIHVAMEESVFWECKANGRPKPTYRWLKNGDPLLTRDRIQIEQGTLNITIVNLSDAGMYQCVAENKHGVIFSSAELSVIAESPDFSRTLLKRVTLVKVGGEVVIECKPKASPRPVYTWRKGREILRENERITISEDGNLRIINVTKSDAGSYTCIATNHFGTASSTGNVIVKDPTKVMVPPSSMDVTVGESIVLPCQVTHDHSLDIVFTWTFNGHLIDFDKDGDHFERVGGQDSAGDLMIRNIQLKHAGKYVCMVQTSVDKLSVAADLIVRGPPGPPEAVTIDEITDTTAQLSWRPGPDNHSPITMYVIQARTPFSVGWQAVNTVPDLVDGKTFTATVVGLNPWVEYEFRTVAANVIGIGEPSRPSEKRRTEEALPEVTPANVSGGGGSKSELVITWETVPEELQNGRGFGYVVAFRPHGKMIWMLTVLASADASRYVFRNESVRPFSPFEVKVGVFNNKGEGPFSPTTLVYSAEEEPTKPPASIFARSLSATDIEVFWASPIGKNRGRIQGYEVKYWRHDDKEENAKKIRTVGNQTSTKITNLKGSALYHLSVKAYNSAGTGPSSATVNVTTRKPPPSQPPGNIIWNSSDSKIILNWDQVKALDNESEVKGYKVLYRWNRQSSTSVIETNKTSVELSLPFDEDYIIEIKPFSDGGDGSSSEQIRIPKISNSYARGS

T3: human CNTN4-rabbit Fc (human; rabbit, UniProt Q8IWV2 19-1000, limits assumed)
T3 construct: not shown: rabbit Fc
T3 sequence (looked up): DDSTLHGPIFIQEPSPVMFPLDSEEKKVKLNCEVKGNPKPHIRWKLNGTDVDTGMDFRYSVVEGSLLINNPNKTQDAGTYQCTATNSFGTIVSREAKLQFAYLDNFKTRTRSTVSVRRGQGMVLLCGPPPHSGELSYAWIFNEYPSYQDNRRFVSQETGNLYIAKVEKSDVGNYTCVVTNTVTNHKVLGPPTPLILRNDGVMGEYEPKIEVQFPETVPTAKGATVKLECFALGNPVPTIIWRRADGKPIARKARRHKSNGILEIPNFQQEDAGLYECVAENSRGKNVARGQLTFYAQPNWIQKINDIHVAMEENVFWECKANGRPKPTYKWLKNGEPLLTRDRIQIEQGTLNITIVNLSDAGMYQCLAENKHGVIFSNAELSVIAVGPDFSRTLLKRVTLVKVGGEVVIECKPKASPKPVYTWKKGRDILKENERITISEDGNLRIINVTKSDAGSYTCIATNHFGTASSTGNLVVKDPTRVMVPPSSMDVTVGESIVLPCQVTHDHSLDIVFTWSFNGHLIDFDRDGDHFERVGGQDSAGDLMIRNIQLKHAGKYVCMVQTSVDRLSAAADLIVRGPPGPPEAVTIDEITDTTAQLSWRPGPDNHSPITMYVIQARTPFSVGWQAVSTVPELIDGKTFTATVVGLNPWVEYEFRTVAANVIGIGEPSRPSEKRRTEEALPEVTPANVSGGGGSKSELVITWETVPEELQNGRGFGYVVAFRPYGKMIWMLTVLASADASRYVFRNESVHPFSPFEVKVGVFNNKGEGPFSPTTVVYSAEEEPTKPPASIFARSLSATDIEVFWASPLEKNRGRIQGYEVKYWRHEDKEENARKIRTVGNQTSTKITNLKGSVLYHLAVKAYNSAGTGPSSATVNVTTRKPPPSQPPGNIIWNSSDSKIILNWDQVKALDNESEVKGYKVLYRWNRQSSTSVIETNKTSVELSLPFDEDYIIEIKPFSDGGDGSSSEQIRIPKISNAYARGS


Experiments:
[1] = target: T1, human CNTN4 antigen expressed on the …; assay: FACS, 293FT cells transfected with human CNTN4, 40 ug/mL, anti-hFc-PE
mouse CNTN4-rabbit Fc = target: T2, mouse CNTN4-rabbit Fc; assay: ELISA, plate coated with antigen-rabbit Fc, anti-human IgG Fc-HRP
Method: (§1) An ELISA tests were performed on a total of 25 scFv-hCks and a total of 27 IgGs for which the expression was confirmed in Example 1.2. An ELISA plate was coated with 200 ng of antigens (human CNTN4-rabbit Fc or mouse CNTN4-rabbit Fc). 200 ng of a negative control (human antigen-rabbit Fc) for a tagging protein was used. For antibody binding, anti-CNTN4 scFv-hCk was serially diluted from a maximum of 1 μM to 0.001 nM by 1/10×each, and anti-CNTN4 IgG was serially diluted from a maximum of 10 nM to 0.00001 nM by 1/10×each, thereby binding to the antigen. Anti-human kappa-HRP or anti-human IgG Fc-HRP was used as the secondary antibody for antibody detection. Color was developed using ABTS, which is a color developing reagent, and the absorbance at 405 nm was measured.

human CNTN4-rabbit Fc = target: T3, human CNTN4-rabbit Fc; assay: as above
Method: as §1

Binder	Shift % [1] [%]	EC50 (mouse CNTN4-rabbit Fc) [nM]	EC50 (human CNTN4-rabbit Fc) [nM]
anti-CNTN4 IgG A13WB2 (antibody, V domains shown, human IgG4 (S228P)) VH: AVTLDESGGGLHTPGGALSLVCKASGFTFSSYGMAWVRQAPGKGLEWVAGITSSGSSAGYGPAVKGRATISRDNGQSTVRLQLNNLRAEDTATYYCAKDGYIYSGADSDSIDAWGHGTEVIVSS VL: ALTQPSSVSANLGGTVEITCSGGYSGYGWYQQKSPGSAPVTLIYYNDKRPSDIPSRFSGSKSGSTGTLTITGVQAEDEAVYFCGSRDSSTYVDIFGAGTTLTVL	86.6	0.01	0.01
anti-CNTN4 IgG A13WB7 (antibody, V domains shown, human IgG4 (S228P)) VH: AVTLDESGGGLHTPGGALSLVCKASGFTFSSYGMAWVRQAPGKGLEWVAGITSSGSSAGYGPAVKGRATISRDNGQSTVRLQLNNLRAEDTATYYCAKDGYIYSGADSDSIDAWGHGTEVIVSS VL: ALTQPSSVSANPGETVKITCSGGGSSSYYNYGWYQQKSPGSAPVTVIYYNDKRPSDIPSRFSGSKSGSTGTLTITGVQAEDEAVYYCGSWDSSTYSDIFGAGTTLTVL	86.4	0.01	0.01
anti-CNTN4 IgG A13WB4 (antibody, V domains shown, human IgG4 (S228P)) VH: AVTLDESGGGLHTPGGALSLVCKASGFTFSSYGMAWVRQAPGKGLEWVAGITSSGSSAGYGPAVKGRATISRDNGQSTVRLQLNNLRAEDTATYYCAKDGYIYSGADSDSIDAWGHGTEVIVSS VL: ALTQPSSVSANPGETVEITCSGGSSDYGYGWYQQKSPGSAPVTVIYYNNNRPSDIPSRFSGSLSGSTNTLTITGVQADDEAVYFCGSRDSSSGYVDIFGAGTTLTVL	84.7	0.01	0.01

The next lines start with the values.

Shift % [1] [%]	EC50 (mouse CNTN4-rabbit Fc) [nM]	EC50 (human CNTN4-rabbit Fc) [nM]	Binder
85.1	0.01	0.01	anti-CNTN4 IgG A13WB24 (antibody, V domains shown, human IgG4 (S228P)) VH: AVTLDESGGGLHTPGGALSLVCKASGFTFSSYGMAWVRQAPGKGLEWVAGITSSGSSAGYGPAVKGRATISRDNGQSTVRLQLNNLRAEDTATYYCAKDGYIYSGADSDSIDAWGHGTEVIVSS VL: ALTQPSSVSANPGGTVEITCSGGGNNNYGWYQQKSPGSAPVTLIYYNDNRPSDIPSRFSGSKSGSTATLTITGVQAEDEAVYYCGGYDISYVDIFGAGTTLTVL
86.4	0.01	0.01	anti-CNTN4 IgG A13WB73 (antibody, V domains shown, human IgG4 (S228P)) VH: AVTLDESGGGLHTPGGVLSLVCKASGFTFSSYGMAWVRQAPGKGLEWVAGITSSGSSAGYGPAVKGRATISRDNGQSTVRLQLNNLRAEDTATYYCAKDGYIYSGADSDSIDAWGHGTEVIVSS VL: ALTQPSSVSANLGGTVEITCSGGYSGYGWYQQMSPGSAPVTLTYYNDKRPSNIPSRFSGSKSGSTATLAITGVQAEDEAVYYCGSWDTSTNTPIFGAGTTLTVL
80.4	0.02	0.01	anti-CNTN4 IgG A35SF8 (antibody, V domains shown, human IgG4 (S228P)) VH: AVTLDESGGGLHTPGGALSLVCKASGFTFSSYGMAWVRQAPGKGLEWVAGITSSGSSAGYGPAVKGRATISRDNGQSTVRLQLNNLRAEDTATYYCAKDGYIYSGADSDSIDAWGHGTEVIVSS VL: ALTQPSSVSANLGGTVKITCSGGGGSYGWFQQKSPGSAPVTLIYNNNNRPSDIPSRFSGSKSGSTATLTITGVQAEDEAVYFCGGYDDSTYVGMFGAGTTLTVL
